Laboratory results as given in US20210147519A1 (Regeneron, published 2021).

B1: H1H20636D (bispecific antibody, V domains shown)
VH 1: QLQLQESGPGLVKPSETLSLTCTVSGGSISSSSYYWVWIRQPPGKGLEWIGNIYFSGSTYYNPSLKSRVTITVDTSKNQFSLKMTSVTAADTAVYYCARPFYGSRGDYYYGMDVWGQGTTVTVSS
VH 2: EIVLTQSPGTLSLSPGERATLSCRASQNVRSGYLAWYQQKPGQAPRLLIYGTSTRVTGIPDRFSGFGSGTDFTLTISRLEPEDFAVYYCQQYGNSPLFTFGGGTKVEIK
VL: not shown
notes: also called anti-IsdB x anti-C1q bispecific antibody
B2: H1H20642D (bispecific antibody, V domains shown)
VH 1: B1 VH 1
VH 2: EVQLVESGGGLVQPGGSLRLSCAASGFTFSNYEMNWVRQAPGKGLDWVSYISTSGSVIYYADSVKGRFTISRDNAKNSLYLEMNSLRAEDTAVYYCARGYDFWSGSDYYYGMDVWGQGTTVTVSS
VL: not shown
notes: as for B1
B3: H1H20637D (bispecific antibody, V domains shown)
VH 1: B1 VH 1
VH 2: EIVMTQSPATLSVSPGERATLSCTASQTINSNLAWYQQRPGQAPRLLIYGASTRATGTPARFRGSGSGTEFTLTISSLLSEDFAVYYCQNYNNWPPGGPRTFGPGTKVDIK
VL: not shown
notes: as for B1
B4: H1H20638D (bispecific antibody, V domains shown)
VH 1: B1 VH 1
VH 2: DIQMTQSPSSLSASIGDRVTITCRTSQDINNYLAWYQQKPGKVPKLLIFSASTLQSGVPSRFSGSGFGTDFTFIISSLQPEDVATYFCQKYDSGRGLSFGGGTKVEIK
VL: not shown
notes: as for B1
B5: H1H20641D (bispecific antibody, V domains shown)
VH 1: B1 VH 1
VH 2: QVQLVESGGGVVQPGRSLRLSCAASGFTFSNYGMHWVRQAPGKGLEWLAVIYYDGIKRYYGDSVQGRFIISRDNSKNTLYLQMNSLRDEDTAVYYCARAFSAAGPYNYYYAMDVWGQGTTVTVSS
VL: not shown
notes: as for B1
B6: H1H20632D (bispecific antibody, V domains shown)
VH 1: EVQLVESGGGLVQPGRSLRLSCTTSGFTFDDYAMHWVRQVPGQGLEWVAGLSWNSDTIGYADSVKGRFTISRDNAKNSLYLQMKSLKAEDTALYYCTKDFYHSLNNWNYYYFDYWGQGTLVTVSS
VH 2: QVQLVESGGGVVQPGRSLRLSCAASGFTFSSYGMHWVRQAPGKGLEWVAVIWYDGSNKNYADSVKGRFTISRDSSKNTLYLQMNSLRAEDTAVYYCARENSEGYYYGMDVWGQGTTVTVSS
VL: not shown
notes: as for B1
B7: H1H20633D (bispecific antibody, V domains shown)
VH 1: B6 VH 1
VH 2: EVQLVQSGAEVKKPGESLKISCKASGYNFNSYWIGWVRQMPGKGLEWMGIVFPGDSDTRYSPSFQGQVTISADESINTAYLQWSSLKASDTAVYYCARHTRWYLDYWGQGTLVTVSS
VL: not shown
notes: as for B1

Experiments:
[1] = target: T1, Recombinant bacterial IsdB expressed with a hexahistidine tag (IsdB-6xHis; REGN2655) (Staphylococcus aureus, UniProt A6QG30 42-613); test: SPR Biacore, captured Ab, IsdB-6xHis analyte, 37C
T1 sequence (A6QG30 42-613, tags left off): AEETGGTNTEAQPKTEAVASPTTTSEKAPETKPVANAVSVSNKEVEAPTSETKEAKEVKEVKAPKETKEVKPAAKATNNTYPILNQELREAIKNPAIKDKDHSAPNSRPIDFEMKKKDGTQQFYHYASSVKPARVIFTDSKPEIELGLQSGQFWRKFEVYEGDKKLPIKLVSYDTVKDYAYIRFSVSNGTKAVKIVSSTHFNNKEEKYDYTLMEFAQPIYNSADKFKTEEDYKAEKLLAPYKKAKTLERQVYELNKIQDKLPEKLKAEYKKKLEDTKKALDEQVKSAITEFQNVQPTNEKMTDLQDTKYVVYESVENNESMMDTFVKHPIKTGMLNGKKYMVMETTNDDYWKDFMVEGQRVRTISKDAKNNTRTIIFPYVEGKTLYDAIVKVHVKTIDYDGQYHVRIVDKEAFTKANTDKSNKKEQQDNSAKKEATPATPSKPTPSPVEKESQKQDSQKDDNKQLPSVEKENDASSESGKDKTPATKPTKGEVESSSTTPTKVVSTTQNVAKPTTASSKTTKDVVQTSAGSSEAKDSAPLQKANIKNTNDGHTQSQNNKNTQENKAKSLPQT

[2] = target: T2, native human complement component C1q protein purified from human serum (Quidel) (human, UniProt P02745 23-245; P02746 28-253; P02747 29-245); test: competition ELISA, 6 nM biot-hC1q, competitor plate-coated hIgG2-k
T2 construct: the protein assayed was bought native serum C1q (Quidel); no signal peptide limits are stated; also called hC1q; human C1q
T2 sequence (P02745 23-245 limits assumed, chain 1 of 3): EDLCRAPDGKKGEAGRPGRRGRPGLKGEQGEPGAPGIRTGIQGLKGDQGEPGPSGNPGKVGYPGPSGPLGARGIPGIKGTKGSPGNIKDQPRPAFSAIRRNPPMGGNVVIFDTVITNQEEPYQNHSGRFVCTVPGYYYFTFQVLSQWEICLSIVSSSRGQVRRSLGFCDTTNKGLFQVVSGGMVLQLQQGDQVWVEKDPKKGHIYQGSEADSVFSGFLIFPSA
T2 sequence (P02746 28-253 limits assumed, chain 2 of 3): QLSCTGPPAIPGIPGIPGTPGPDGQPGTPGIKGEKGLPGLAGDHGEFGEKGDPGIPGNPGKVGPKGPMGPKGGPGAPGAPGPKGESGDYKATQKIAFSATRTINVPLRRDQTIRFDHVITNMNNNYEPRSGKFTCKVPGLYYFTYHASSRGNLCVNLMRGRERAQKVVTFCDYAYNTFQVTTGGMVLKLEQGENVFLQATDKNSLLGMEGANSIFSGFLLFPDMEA
T2 sequence (P02747 29-245 limits assumed, chain 3 of 3): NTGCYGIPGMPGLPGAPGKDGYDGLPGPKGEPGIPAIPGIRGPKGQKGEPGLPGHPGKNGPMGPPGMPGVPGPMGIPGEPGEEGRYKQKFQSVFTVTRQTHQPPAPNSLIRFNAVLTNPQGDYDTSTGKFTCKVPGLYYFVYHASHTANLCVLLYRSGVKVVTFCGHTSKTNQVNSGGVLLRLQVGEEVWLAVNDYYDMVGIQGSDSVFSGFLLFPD

[3] = target: T2, native human complement component C1q …; test: SPR Biacore, captured Ab, hC1q analyte, 37C
[4] = target: T2, native human complement component C1q …; test: SPR Biacore, captured Ab, hC1q analyte, 25C
[5] = target: T2, native human complement component C1q …; test: competition ELISA, 30 pM biot-hC1q, competitor plate-coated hIgG1-k
[6] = target: T3, IsdB expressed on the surface of S. aureus Wood 46 (Staphylococcus aureus); test: ELISA on plate-coated S. aureus Wood 46
T3 construct: whole, on cells
T3 sequence (Q2FZF0 41-613): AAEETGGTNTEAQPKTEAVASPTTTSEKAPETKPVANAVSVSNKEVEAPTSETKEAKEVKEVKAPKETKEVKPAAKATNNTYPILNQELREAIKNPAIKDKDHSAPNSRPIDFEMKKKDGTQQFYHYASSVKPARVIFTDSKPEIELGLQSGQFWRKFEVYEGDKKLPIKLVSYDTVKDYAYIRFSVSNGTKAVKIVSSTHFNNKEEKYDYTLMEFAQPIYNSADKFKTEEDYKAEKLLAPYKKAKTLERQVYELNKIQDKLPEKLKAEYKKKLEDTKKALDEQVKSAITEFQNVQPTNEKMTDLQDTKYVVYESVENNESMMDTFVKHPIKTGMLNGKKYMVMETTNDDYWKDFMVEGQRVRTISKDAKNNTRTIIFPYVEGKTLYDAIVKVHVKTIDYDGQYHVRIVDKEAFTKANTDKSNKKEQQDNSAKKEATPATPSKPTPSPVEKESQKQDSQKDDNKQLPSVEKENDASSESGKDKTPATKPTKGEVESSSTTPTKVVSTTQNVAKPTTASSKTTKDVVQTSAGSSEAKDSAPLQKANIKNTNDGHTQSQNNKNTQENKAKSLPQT
Procedure: Briefly, S. aureus Wood 46 was grown in RPMI overnight, washed in PBS and adjusted to an OD₆₀₀ of 0.25. MaxiSorp 96 well microtiter plates were coated overnight with 100 μl of S. aureus culture per well. Plates were washed and blocked with 3% BSA. […] Anti-human HRP conjugated secondary antibody was added to washed plates. Luminescence reagents (SuperSignal Pico) were then added to the wells and signal was detected in a plate reader (Victor X3 plate reader, Perkin Elmer) immediately. Luminescence values were analyzed by a four-parameter logistic equation over a 7-point response curve (GraphPad Prism) to determine the binding EC₅₀, of the antibodies.

[7] = target: T2, native human complement component C1q …; test: competition ELISA, 30 pM biot-hC1q, competitor plate-coated hIgG3-k
[8] = target: T1, Recombinant bacterial IsdB expressed …; test: SPR Biacore, captured Ab, IsdB-6xHis analyte, 25C
[9] = target: T2, native human complement component C1q …; test: competition ELISA, 6 nM biot-hC1q, competitor plate-coated hIgM
[10] = target: T2, native human complement component C1q …; test: cell-based or functional assay
[11] = target: T2, native human complement component C1q …; test: cell-based or functional assay; remark: listed apart in the source
[12] = target: T2, native human complement component C1q …; test: cell-based or functional assay; remark: listed apart in the source

| Binder | Kd [1] [nM] | koff [1] [s⁻¹] | kon [1] [M⁻¹ s⁻¹] | t1/2 [1] [min] | % Blockade with 600 nM bispecific Ab [2] [%] | Kd [3] [nM] | koff [3] [s⁻¹] | kon [3] [M⁻¹ s⁻¹] | t1/2 [3] [min] | Kd [4] [nM] | koff [4] [s⁻¹] | kon [4] [M⁻¹ s⁻¹] | t½ [4] [min] | % Blockade with 30 nM bispecific Ab [5] [%] | EC50 [6] [nM] | % Blockade with 30 nM bispecific Ab [7] [%] | Kd [8] [nM] | koff [8] [s⁻¹] | kon [8] [M⁻¹ s⁻¹] | t½ [8] [min] | further results |
| --- | --- | --- | --- | --- | --- | --- | --- | --- | --- | --- | --- | --- | --- | --- | --- | --- | --- | --- | --- | --- | --- |
| B1 | 17.4 | 0.00144 | 82800 | 8.04 | 20 | 2.73 | 0.0179 | 6.57e+06 | 0.64 | 2.12 | 0.0102 | 4.81e+06 | 1.14 | -29 | 9.52 | -11 | 4.98 | 0.000378 | 75800 | 30.6 | % Blockade with 600 nM bispecific Ab [9]: 11%; Classical Pathway hemolysis assay % inhibition [10]: 0%; C1q deposition on S. aureus Cowan I EC50 [11]: 8.54 nM |
| B2 | 16.7 | 0.00141 | 84600 | 8.19 | 80 | 0.0501 | 0.000412 | 8.23e+06 | 28 | 0.0114 | 0.000196 | 1.72e+07 | 58.9 | 71 | 8.57 | 96 | 8.26 | 0.000501 | 60700 | 23 | IC50 [2]: 5 nM; IC50 [5]: 0.11 nM; IC50 [7]: 0.37 nM; inhibition of CDC of Daudi cells, IC50 [M] [12]: 1e-08 M; inhibition of CDC of Daudi cells, Max % Inhibition [12]: ≥ 99%; % Blockade with 600 nM bispecific Ab [9]: 72%; IC50 [9]: 3.9 nM; Classical Pathway hemolysis assay % inhibition [10]: 99%; Classical Pathway hemolysis assay IC50 [10]: 0.106 nM; C1q deposition on S. aureus Cowan I EC50 [11]: 0.00586 nM |
| B3 | 17.4 | 0.00149 | 85100 | 7.78 | 70 | 2.33 | 0.0407 | 1.75e+07 | 0.28 | 1.54 | 0.0124 | 8.01e+06 | 0.93 | -3 | 11.3 | -2 | 9.34 | 0.000468 | 50100 | 24.7 | IC50 [2]: 100 nM; inhibition of CDC of Daudi cells, IC50 [M] [12]: > 1e-07 M; inhibition of CDC of Daudi cells, Max % Inhibition [12]: 67%; % Blockade with 600 nM bispecific Ab [9]: 88%; IC50 [9]: 71 nM; Classical Pathway hemolysis assay % inhibition [10]: 50%; C1q deposition on S. aureus Cowan I EC50 [11]: 5 nM |
| B4 | 17.8 | 0.00144 | 80900 | 8.03 | 33 | 1.98 | 0.011 | 5.53e+06 | 1.05 | 1.28 | 0.00511 | 4.01e+06 | 2.26 | -30 | 10.4 | -25 | 10.8 | 0.000498 | 46200 | 23.2 | inhibition of CDC of Daudi cells, IC50 [M] [12]: 1e-07 M; inhibition of CDC of Daudi cells, Max % Inhibition [12]: ≥ 99%; % Blockade with 600 nM bispecific Ab [9]: 28%; Classical Pathway hemolysis assay % inhibition [10]: 24%; C1q deposition on S. aureus Cowan I EC50 [11]: 2.55 nM |
| B5 | 14.7 | 0.00141 | 95900 | 8.19 | 19 | 0.18 | 0.00027 | 1.5e+06 | 42.9 | 0.154 | 0.00068 | 4.38e+06 | 17.1 | -17 | 10.3 | -13 | 6.02 | 0.000438 | 72800 | 26.4 | inhibition of CDC of Daudi cells, IC50 [M] [12]: > 1e-06 M; inhibition of CDC of Daudi cells, Max % Inhibition [12]: 33%; % Blockade with 600 nM bispecific Ab [9]: 14%; Classical Pathway hemolysis assay % inhibition [10]: 0%; C1q deposition on S. aureus Cowan I EC50 [11]: 1.29 nM |
| B6 | 3.41 | 0.000527 | 154000 | 21.9 | 88 | 0.175 | 0.00871 | 4.99e+07 | 1.33 | 0.294 | 0.00318 | 1.08e+07 | 3.64 | 90 | 1.08 | 86 | 2.21 | 0.000255 | 115000 | 45.2 | IC50 [2]: 23 nM; IC50 [7]: 83 nM; inhibition of CDC of Daudi cells, IC50 [M] [12]: 2.3e-07 M; inhibition of CDC of Daudi cells, Max % Inhibition [12]: ≥ 99%; % Blockade with 600 nM bispecific Ab [9]: 97%; IC50 [9]: 18 nM; Classical Pathway hemolysis assay % inhibition [10]: 100%; Classical Pathway hemolysis assay IC50 [10]: 1.78 nM; C1q deposition on S. aureus Cowan I EC50 [11]: 0.529 nM |
| B7 | 3.41 | 0.00054 | 159000 | 21.4 | 79 | 0.487 | 0.0127 | 2.61e+07 | 0.91 | 0.271 | 0.00348 | 1.28e+07 | 3.32 | 93 | 1.31 | 84 | 2.04 | 0.000247 | 121000 | 46.9 | IC50 [2]: 8.2 nM; IC50 [5]: 1.6 nM; IC50 [7]: 4.8 nM; inhibition of CDC of Daudi cells, IC50 [M] [12]: 1.7e-08 M; inhibition of CDC of Daudi cells, Max % Inhibition [12]: ≥ 99%; % Blockade with 600 nM bispecific Ab [9]: 96%; IC50 [9]: 6.4 nM; Classical Pathway hemolysis assay % inhibition [10]: 100%; Classical Pathway hemolysis assay IC50 [10]: 1.42 nM; C1q deposition on S. aureus Cowan I EC50 [11]: 0.203 nM |
